Values belong to the substance of their own block, whether it stands above or below them.
Assays:
H-2K^b (mouse) [1] = biological target: H-2K^b (mouse) (UniProt P01901); assay: flow cytometry, RMA-S transfectant Y317-2, 37° C.
[2] = biological target: K^b/OVA257-264 complex on Y317-2 cells (H-2K^b with OVA257-264 linked to human membranal β2m) (mouse; chicken; human); assay: flow cytometry, RMA-S transfectant Y317-2, 37° C.
H-2K^k (mouse) [3] = biological target: H-2K^k (mouse) (UniProt P04223); assay: flow cytometry with QIFIKIT, parental MD45 cells
H-2K^k (mouse) [4] = biological target: H-2K^k (mouse) (UniProt P04223); assay: flow cytometry with QIFIKIT, MD45 transfectant 427-24
H-2K^k (mouse) [5] = biological target: H-2K^k (mouse) (UniProt P04223); assay: flow cytometry with QIFIKIT, MD45 transfectant 425-44
[6] = biological target: Ha255-262 dcβ2m (Ha255-262 - linker - human β2m - bridge - mouse CD3 ζ) (influenza virus; human; mouse) (UniProt P61769); assay: flow cytometry with QIFIKIT, MD45 transfectant 427-24
[7] = biological target: NP50-57 dcβ2m (NP50-57 - linker - human β2m - bridge - mouse CD3 ζ) (influenza virus; human; mouse) (UniProt P61769); assay: flow cytometry with QIFIKIT, MD45 transfectant 425-44
[8] = biological target: hβ2m-CD40 (human β2m fused through a bridge to the mouse CD40 transmembrane and cytoplasmic region) (human; mouse) (UniProt P61769); assay: cell-based or functional assay
H-2K^k (mouse) [9] = biological target: H-2K^k (mouse) (UniProt P04223); assay: derived from QIFIKIT flow cytometry with Fab13.4.1 and AF3-12.1 on 427-24 cells
H-2K^b (mouse) [10] = biological target: H-2K^b (mouse) (UniProt P01901); assay: derived from MFI of 25D-1.16 and anti-H-2K^b staining of Y317-2 cells at 37° C.
H-2K^d (mouse) = H-2K^d (mouse) (UniProt P01902); assay: cell-based or functional assay
Chain of UniProt P01902 (P01902 22-305 limits assumed): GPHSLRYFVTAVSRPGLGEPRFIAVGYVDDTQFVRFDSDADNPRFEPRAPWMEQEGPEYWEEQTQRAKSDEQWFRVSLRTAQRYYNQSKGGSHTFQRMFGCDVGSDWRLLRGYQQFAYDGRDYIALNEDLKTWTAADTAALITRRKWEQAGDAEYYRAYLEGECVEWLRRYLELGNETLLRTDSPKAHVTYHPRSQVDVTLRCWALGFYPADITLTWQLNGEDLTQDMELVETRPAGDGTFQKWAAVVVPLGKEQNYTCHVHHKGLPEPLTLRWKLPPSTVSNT

Chain of UniProt P04223 (P04223 22-369 limits assumed): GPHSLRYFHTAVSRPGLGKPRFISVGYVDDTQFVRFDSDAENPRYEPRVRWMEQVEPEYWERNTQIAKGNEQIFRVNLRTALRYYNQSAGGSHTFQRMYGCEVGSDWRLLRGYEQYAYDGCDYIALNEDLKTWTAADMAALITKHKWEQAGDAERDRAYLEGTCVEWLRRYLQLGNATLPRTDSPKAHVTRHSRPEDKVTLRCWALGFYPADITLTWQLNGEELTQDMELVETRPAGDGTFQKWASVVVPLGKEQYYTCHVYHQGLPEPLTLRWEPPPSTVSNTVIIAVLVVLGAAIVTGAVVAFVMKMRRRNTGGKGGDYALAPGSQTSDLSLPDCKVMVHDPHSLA
Chain of UniProt P01901 (P01901 22-369 limits assumed): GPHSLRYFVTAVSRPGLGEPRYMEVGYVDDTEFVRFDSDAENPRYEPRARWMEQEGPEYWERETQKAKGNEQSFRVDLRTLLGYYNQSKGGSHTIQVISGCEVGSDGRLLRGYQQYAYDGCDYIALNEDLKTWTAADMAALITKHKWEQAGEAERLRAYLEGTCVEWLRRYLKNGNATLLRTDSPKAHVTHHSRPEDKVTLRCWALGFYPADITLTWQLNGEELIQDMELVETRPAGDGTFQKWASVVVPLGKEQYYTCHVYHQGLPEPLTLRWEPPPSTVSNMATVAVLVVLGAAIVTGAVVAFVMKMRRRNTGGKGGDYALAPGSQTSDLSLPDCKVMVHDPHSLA

mean fluorescence intensity (H-2K^b (mouse) [1]): 122 MFI
Substance: 20-8-4 anti-H-2K^b mAb (antibody)

mean fluorescence intensity [2]: 69.7 MFI
Substance: 25-D1.16 mAb specific to the complex H-2K^b/OVA257-264 (antibody)

quantity of surface antigen (QIFIKIT) (H-2K^k (mouse) [3]): 10900
quantity of surface antigen (QIFIKIT) (H-2K^k (mouse) [4]): 28600
quantity of surface antigen (QIFIKIT) (H-2K^k (mouse) [5]): 37600
Substance: AF3-12.1 anti-K^k mAb (antibody)

Substance: BM-63 anti-human β2m mAb (antibody)
quantity of surface antigen (QIFIKIT) [6]: 173000
quantity of surface antigen (QIFIKIT) [7]: 467000
decrease of total cellular IκBα (immunoblot) in A20 transfectant [8]: 39%

Substance: Ha255-262 dcβ2m (Ha255-262 - linker - human β2m - bridge - mouse CD3 ζ) (from UniProt P61769 21-119; P24161 31-164)
occupation of surface H-2K^k molecules (H-2K^k (mouse) [9]): 20%

H-2K^b occupancy (H-2K^b (mouse) [10]): 57%
Substance: OVA257-264 dcβ2m with human β2m and H-2K^b anchor (from UniProt P61769 21-119)

reduction of total cellular IκBα (immunoblot) in A20 transfectant after incubation with an anti-H-2 K^d mAb (H-2K^d (mouse)): 71%
Substance: hβ2m-CD40 (human β2m fused through a bridge to the mouse CD40 transmembrane and cytoplasmic region) (from UniProt P61769 21-119; P27512 194-289)

Reference: patent publication US20080286312A1
